In the test the target is HA-tagged DDX6 (designed around the RecA2 region) (UniProt P26196). The experiment in a line: grating-coupled interferometry (GCI); Creoptix WAVEsystem; DDX6 protein immobilised on the sensor chip by amine coupling, 4E-T protein as analyte; PBS/0.01% Tween20; regeneration-free kinetics; blank without DDX6 as reference.

The Kd is a measure of binding affinity in units of concentration. For orientation: koff means the rate constant with which the complex falls apart. In general, kon refers to a measure of how fast the partners come together. Higher therefore signals fast association.

UniProt P26196, sequence (P26196 whole entry): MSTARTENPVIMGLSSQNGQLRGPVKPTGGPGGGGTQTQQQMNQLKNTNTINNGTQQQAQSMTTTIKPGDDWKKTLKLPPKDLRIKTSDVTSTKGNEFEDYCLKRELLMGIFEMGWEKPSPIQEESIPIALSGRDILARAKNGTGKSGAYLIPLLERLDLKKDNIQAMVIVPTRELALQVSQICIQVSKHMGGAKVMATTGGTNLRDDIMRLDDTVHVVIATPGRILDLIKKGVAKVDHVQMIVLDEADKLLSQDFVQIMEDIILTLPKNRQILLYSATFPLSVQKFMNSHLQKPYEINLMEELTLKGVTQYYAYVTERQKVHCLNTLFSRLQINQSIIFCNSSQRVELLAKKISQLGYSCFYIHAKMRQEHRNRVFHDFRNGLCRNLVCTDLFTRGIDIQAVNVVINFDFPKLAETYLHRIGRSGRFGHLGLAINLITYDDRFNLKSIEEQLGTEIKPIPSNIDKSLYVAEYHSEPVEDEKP

“HA-tagged 4E-T (designed around the CHD region) (from UniProt Q9NRA8 1-985) (domain or fragment)” had a Kd of 774 nM, a koff of 0.000278 s⁻¹ and a kon of 359 M⁻¹ s⁻¹.

These data come from PMC9174231.
